The values that follow come from patent US20190203279A1 (NAVINCI DIAGNOSTICS, published 2019).

The target of the assay is T1, β-catenin (UniProt P35222 2-781).
T1 construct: Endogenous protein in A549 cells; also called beta-catenin
T1 sequence (looked up): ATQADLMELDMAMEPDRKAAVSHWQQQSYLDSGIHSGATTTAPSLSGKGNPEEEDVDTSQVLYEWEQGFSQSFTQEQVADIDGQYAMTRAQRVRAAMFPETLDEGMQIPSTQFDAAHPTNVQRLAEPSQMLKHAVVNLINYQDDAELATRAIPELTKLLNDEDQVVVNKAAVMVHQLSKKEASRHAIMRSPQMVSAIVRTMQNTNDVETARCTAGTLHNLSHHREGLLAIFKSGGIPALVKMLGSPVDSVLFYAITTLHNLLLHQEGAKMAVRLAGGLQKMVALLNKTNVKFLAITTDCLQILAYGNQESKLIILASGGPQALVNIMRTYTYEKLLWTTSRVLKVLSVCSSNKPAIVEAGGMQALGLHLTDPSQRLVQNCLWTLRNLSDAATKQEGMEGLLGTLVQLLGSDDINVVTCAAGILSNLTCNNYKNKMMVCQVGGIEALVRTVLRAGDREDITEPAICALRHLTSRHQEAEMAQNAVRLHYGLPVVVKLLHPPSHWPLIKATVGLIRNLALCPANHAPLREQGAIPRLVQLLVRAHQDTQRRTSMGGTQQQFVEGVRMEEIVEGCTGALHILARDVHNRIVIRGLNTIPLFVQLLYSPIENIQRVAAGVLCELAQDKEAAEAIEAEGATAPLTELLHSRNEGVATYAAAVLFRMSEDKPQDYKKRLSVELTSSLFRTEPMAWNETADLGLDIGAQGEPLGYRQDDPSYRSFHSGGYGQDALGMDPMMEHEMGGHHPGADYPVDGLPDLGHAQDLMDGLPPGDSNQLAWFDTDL
The experiment in a line: in situ proximity-based RCA assay on fixed A549 cells with anti-E-cadherin and anti-β-catenin primary antibodies and oligonucleotide-conjugated secondary antibodies. Here is the method:
A proximity-based detection assay was performed to detect a protein-protein complex in situ. Frozen A549 cells fixed on a microscopy slide were thawed and incubated with PBS+0.2% Triton X-100 for 5 minutes to permeabilise the cell membranes. Slides were incubated with 30 μl Olink blocking buffer for 60 minutes at 37° C. in a humidity chamber. Primary antibodies were diluted in Olink Antibody diluent (mouse IgG anti E-cadherin 1:100, rabbit IgG anti β-catenin 1:200). Blocking buffer was removed and 15 μl of each antibody solution was added and incubated overnight at 4° C. Slides were washed, and incubated with 30 μl 20 nM secondary antibodies conjugated to oligonucleotides (nucleic acid probe and activator molecule) for 60 minutes at 37° C. in a humidity chamber. Following incubation, slides were washed and incubated with 30 μl RCA mix (Phi29 buffer, BSA, PolyA, dNTPs, UNG, Hoechst, Texas Red labelled detection oligonucleotide and Phi29 polymerase) for 100 minutes at 37° C. in a humidity chamber. Slides were washed at room temperature and allowed to try, before being contacted with SlowFade mounting media and a coverslip applied and incubated for 15 minutes in the dark. All samples were analysed at the same magnification and exposure time (FIG. 18). […]

B1: E-cadherin (other, UniProt P12830 155-882, looked up)
chain: DWVIPPISCPENEKGPFPKNLVQIKSNKDKEGKVFYSITGQGADTPPVGVFIIERETGWLKVTEPLDRERIATYTLFSHAVSSNGNAVEDPMEILITVTDQNDNKPEFTQEVFKGSVMEGALPGTSVMEVTATDADDDVNTYNAAIAYTILSQDPELPDKNMFTINRNTGVISVVTTGLDRESFPTYTLVVQAADLQGEGLSTTATAVITVTDTNDNPPIFNPTTYKGQVPENEANVVITTLKVTDADAPNTPAWEAVYTILNDDGGQFVVTTNPVNNDGILKTAKGLDFEAKQQYILHVAVTNVVPFEVSLTTSTATVTVDVLDVNEAPIFVPPEKRVEVSEDFGVGQEITSYTAQEPDTFMEQKITYRIWRDTANWLEINPDTGAISTRAELDREDFEHVKNSTYTALIIATDNGSPVATGTGTLLLILSDVNDNAPIPEPRTIFFCERNPKPQVINIIDADLPPNTSPFTAELTHGASANWTIQYNDPTQESIILKPKMALEVGDYKINLKLMDNQNKDQVTTLEVSVCDCEGAAGVCRKAQPVEAGLQIPAILGILGGILALLILILLLLLFLRRRAVVKEPLLPPEDDTRDNVYYYDEEGGGEEDQDFDLSQLHRGLDARPEVTRNDVAPTLMSVPRYLPRPANPDEIGNFIDENLKAADTDPTAPPYDSLLVFDYEGSGSEAASLSSLNSSESDKDQDYDYLNEWGNRFKKLADMYGGGEDD
notes: whole, on cells; Endogenous protein in A549 cells
Regarding B1, the binding result is reported as “binds”.
